How the values were obtained:
[1] = target: T1, mouse GPC3 on stably transfected SK-HEP-1 cells (mouse, UniProt Q8CFZ4 25-553); test: MSD-based (ECL) cell binding assay on transfected SK-HEP-1 cells
T1 construct: whole, on cells; also called SK-HEP-1::mouse GPC3; murine GPC3
Protocol: (§1) Binding of optimized lipocalin muteins of SEQ ID NOs: 5-16 to human, cynomolgus and mouse GPC3 compared to SEQ ID NOs: 3 and 4 was tested on SK-HEP-1 cells using an ECL format (FIG. 1). In this experiment, dilution series of lipocalin muteins were incubated on MSD plates coated with human, cynomolgus or mouse GPC3 overexpressing SK-HEP-1 cells.
(§2) SEQ ID NOs: 3, 4, 5, 7, 8, 9, 10, 12, 13, 14, 15 and 16 (using 1000 nM as starting concentration) were serially diluted at a 1:3 ratio down to the picomolar range in PBS/Casein. 20 μl of the dilution series were transferred to the SK-HEP-1-coated plates for 1 hour at room temperature.
(§3) To allow for detection and quantification of bound GPC3 specific lipocalin muteins, the residual supernatants were discarded and 20 μl of a mixture of rabbit anti scaffold antibody (2 μg/ml) and Sulfotag labelled anti rabbit antibody (5 μg/ml) prepared in PBS/casein was added to the wells and incubated for 1 h at RT. After washing, 35 μl surfactant-free reading buffer was added to each well and the ECL intensity of every well was read using a MSD reader.

[2] = target: T2, human GPC3 on stably transfected SK-HEP-1 cells (human, UniProt P51654 25-554); test: as above
T2 construct: whole, on cells; also called SK-HEP-1::human GPC3
Protocol: as §1, §2, §3

[3] = target: T3, cynomolgus GPC3 on stably transfected SK-HEP-1 cells (cynomolgus, UniProt A0A2K5VK50 24-553); test: as above
T3 construct: whole, on cells; also called SK-HEP-1::cyno GPC3; SK-HEP-1::cynomolugus GPC3
Protocol: as §1, §2, §3

[4] = target: T4, Human GPC3 (2119-GP; R&D systems), biotinylated (human, UniProt P51654 25-559, biotinylated using standard NHS chemistry); test: SPR (Biacore T200), biotinylated GPC3 captured on chip, mutein in flow
T4 construct: Bought protein; also called human Glypican-3
Protocol: (§4) SPR analysis of the binding of the optimized Lcn2 muteins to human and mouse GPC3 was performed at 25° C. on a Biacore T200 instrument (GE Healthcare) using HBS-EP+ (1x; BR-1006-69; GE Healthcare) as running buffer. The Biotin CAPture Kit (GE Healthcare) was used to immobilize biotinylated GPC3 to a chip surface. Human GPC3 (2119-GP; R&D systems) and murine GPC3 (6938-GP; R&D systems) were biotinylated using standard NHS chemistry. Undiluted Biotin CAPture Reagent (streptavidin conjugated with ss-DNA oligo) was captured on a Sensor Chip CAP with the pre-immobilized complementary ss-DNA oligo. Thereafter, biotinylated human or murine GPC3 at 1 μg/ml was applied for 300 s at a flow rate of […].
(§5) Lcn2 muteins were applied in concentrations of 10 nM, 40 nM and 160 nM at a flow rate of 30 μL/min. The dilutions were injected with association times of 180 s and dissociation times of 600 s to obtain ka and kd information. Regeneration of the chip surface was achieved by injecting 6 M Guanidinium-HCl+0.25 M NaOH (120 s) with a flow rate of 10 μL/min. Injection of regeneration solutions was followed by an extra wash step with H₂O and a stabilization period of 120 s.
(§6) The data were double-referenced by subtraction of the corresponding signals measured for the control channel (loaded with Biotin CAPture reagent only) and by subtraction of buffer injections from the binding responses. Association rate constant ka and dissociation rate constant kd for the binding reaction were determined using Biacore T200 Evaluation Software V2.0 for data processing and kinetic fitting. The data were globally fit with 1:1 binding model.

[5] = target: T5, murine GPC3 (6938-GP; R&D systems), biotinylated (murine, UniProt Q8CFZ4 25-558, limits assumed, biotinylated using standard NHS chemistry); test: as above
T5 construct: Bought protein; also called mouse GPC3
Protocol: as §4, §5, §6

T4 sequence (P51654 25-559 limits assumed): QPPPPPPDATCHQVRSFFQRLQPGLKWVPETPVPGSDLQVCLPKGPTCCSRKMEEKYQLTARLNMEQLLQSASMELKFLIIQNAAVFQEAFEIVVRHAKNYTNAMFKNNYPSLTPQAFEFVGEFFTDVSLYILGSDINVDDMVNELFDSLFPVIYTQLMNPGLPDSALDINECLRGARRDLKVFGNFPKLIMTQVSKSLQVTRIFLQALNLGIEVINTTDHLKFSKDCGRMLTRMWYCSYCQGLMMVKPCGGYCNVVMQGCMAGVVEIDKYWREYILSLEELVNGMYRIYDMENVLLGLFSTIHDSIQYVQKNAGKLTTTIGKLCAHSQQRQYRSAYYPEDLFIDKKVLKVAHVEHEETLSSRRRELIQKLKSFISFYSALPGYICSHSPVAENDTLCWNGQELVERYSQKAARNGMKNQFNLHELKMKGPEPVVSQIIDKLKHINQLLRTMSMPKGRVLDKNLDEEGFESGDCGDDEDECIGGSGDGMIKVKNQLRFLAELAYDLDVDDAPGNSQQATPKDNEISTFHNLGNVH
T1 sequence (Q8CFZ4 25-553 limits assumed): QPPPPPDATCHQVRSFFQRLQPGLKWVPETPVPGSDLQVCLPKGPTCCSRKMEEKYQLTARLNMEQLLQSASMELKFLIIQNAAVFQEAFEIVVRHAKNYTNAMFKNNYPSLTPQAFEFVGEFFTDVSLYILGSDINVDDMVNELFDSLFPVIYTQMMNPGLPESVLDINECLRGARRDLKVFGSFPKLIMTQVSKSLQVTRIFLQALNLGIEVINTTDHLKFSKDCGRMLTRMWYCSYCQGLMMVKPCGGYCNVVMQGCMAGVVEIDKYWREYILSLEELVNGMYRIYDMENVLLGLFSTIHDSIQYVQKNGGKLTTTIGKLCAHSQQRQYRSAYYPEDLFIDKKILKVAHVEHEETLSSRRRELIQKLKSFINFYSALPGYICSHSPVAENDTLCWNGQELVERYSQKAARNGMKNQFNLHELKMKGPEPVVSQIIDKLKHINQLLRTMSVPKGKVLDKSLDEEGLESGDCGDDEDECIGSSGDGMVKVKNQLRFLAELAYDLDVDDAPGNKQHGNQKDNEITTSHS
T5 sequence (Q8CFZ4 25-558 limits assumed): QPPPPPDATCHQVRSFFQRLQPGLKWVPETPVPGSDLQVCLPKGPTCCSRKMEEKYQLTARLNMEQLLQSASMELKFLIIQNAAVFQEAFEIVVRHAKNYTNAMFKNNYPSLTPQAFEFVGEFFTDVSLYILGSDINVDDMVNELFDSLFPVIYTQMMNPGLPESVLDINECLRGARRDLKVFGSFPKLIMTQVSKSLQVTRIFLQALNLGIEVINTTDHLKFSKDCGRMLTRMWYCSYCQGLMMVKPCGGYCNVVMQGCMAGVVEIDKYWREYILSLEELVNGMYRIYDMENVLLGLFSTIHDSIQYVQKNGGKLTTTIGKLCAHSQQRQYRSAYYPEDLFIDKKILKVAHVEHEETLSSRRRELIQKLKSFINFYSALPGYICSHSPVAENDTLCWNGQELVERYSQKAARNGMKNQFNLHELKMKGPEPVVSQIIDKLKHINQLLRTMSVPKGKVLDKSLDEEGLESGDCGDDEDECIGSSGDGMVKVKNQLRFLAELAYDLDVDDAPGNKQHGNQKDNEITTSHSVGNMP
T2 sequence (P51654 25-554 limits assumed): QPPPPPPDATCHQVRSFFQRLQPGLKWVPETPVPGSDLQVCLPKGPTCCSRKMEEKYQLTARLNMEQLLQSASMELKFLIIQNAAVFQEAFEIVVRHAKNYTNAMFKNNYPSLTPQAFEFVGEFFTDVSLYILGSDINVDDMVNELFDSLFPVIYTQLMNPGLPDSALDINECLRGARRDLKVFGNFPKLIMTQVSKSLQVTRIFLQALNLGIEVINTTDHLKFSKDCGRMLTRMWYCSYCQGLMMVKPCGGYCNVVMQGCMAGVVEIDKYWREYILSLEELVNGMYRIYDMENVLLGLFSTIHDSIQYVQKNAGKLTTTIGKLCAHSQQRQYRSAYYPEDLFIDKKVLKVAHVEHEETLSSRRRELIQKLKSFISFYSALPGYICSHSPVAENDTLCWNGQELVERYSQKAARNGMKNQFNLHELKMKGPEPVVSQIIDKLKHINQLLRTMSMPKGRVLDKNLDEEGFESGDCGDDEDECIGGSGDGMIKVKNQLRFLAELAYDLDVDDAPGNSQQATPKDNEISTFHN

| Binder | EC50 [1] | EC50 [2] | EC50 [3] | Kd [4] | koff [4] | kon [4] | Kd [5] | koff [5] | kon [5] |
| --- | --- | --- | --- | --- | --- | --- | --- | --- | --- |
| lipocalin mutein of SEQ ID NO: 5 (designed binder, hNGAL (Lcn2) mutein; also called optimized GPC3 specific lipocalin mutein) QDSTSDLIPAPPLSKVPLQQNFQDNQFQGKWYVVGVAGNALLREDKDPLKMRATIYELKEDKSYDVTVVSFWRKKCHYKIGTFVPGSQPGEFTLGDIKSGPGQTSNLVRVVSTNYNQHAMVFFKEVRQNREWFAITLYGRTKELTSELKENFIRFSKSLGLPENHIVFPVPIDQCIDGSAWSHPQFEK | 25.6 nM | 24.1 nM | 33.9 nM | 0.119 nM | 0.0002 s⁻¹ | 1.6e+06 M⁻¹ s⁻¹ | 0.207 nM | 0.00026 s⁻¹ | 1.3e+06 M⁻¹ s⁻¹ |
| lipocalin mutein of SEQ ID NO: 3 (designed binder, hNGAL (Lcn2) mutein; also called non-optimized GPC3-specific Lcn2 mutein; mother clone) QDSTSDLIPAPPLSKVPLQQNFQDNQFHGKWYVVGVAGNAMLREDKDPLKMRATIYELKEDKSYNVTGVSFWRKKCHYKIGTFVPGSQPGEFTLGDIKSGPGQTSNLVRVVSTNYNQHAMVFFKEVRQNREWFAITLYGRTKELTSELKENFIRFSKSLGLPENHIVFPVPIDQCIDGSAWSHPQFEK | 29.8 nM | 24.3 nM | 29.9 nM | 0.387 nM | 0.00022 s⁻¹ | 560000 M⁻¹ s⁻¹ | 0.674 nM | 0.0003 s⁻¹ | 450000 M⁻¹ s⁻¹ |
| lipocalin mutein of SEQ ID NO: 6 (designed binder, hNGAL (Lcn2) mutein; also called optimized GPC3 specific lipocalin mutein) QDSTSDLIPAPPLSKVPLQQNFQDNQFQGKWYVVGVAGNVRLREDKDPPKMRATIYELKEDKSYDVTGVSFRGKKCHYKIGTFVPGSQPGEFTLGDIKSGPGETSNLVRVVSTNYNQHAMVFFKEVRQNREWFFITLYGRTKELTSELKENFIRFSKSLGLPENHIVFPVPIDQCIDGSAWSHPQFEK |  |  |  | 0.019 nM | 3.3e-05 s⁻¹ | 1.8e+06 M⁻¹ s⁻¹ | 0.019 nM | 4.2e-05 s⁻¹ | 2.2e+06 M⁻¹ s⁻¹ |
| lipocalin mutein of SEQ ID NO: 7 (designed binder, hNGAL (Lcn2) mutein; also called optimized GPC3 specific lipocalin mutein) QDSTSDLIPAPPLSKVPLQQNFQDNQFQGKWYVVGVAGNGMLREDKDPLKMRATIYELKEDKSYDVTSVAFRNKKCHYKIGTFVPGSQPGEFTLGQIKSGPGETSNLVRVVSTNYNQHAMVFFKEVRQNREWFFITLYGRTKELTSELKENFIRFSKSLGLPENHIVFPVPIDQCIDGSAWSHPQFEK | 4.8 nM | 2.5 nM | 2.8 nM | 0.097 nM | 0.00013 s⁻¹ | 1.3e+06 M⁻¹ s⁻¹ | 0.145 nM | 0.00015 s⁻¹ | 1e+06 M⁻¹ s⁻¹ |
| lipocalin mutein of SEQ ID NO: 8 (designed binder, hNGAL (Lcn2) mutein; also called optimized GPC3 specific lipocalin mutein) QDSTSDLIPAPPLSKVPLQQNFQDNQFQGKWYVVGRAGNVGLREDKDPPKMWATIYELKEDKSYDVTNVRFARKKCLYSIGTFVPGSQPGEFTLGQIKSEPGNTANLVRVVSTNYNQHAMVFFKEVYQNREIFFIILYGRTKELTSELKENFIRFSKSLGLPENHIVFPVPIDQCIDGSAWSHPQFEK | 5.3 nM | 1.4 nM | 2.3 nM | 0.068 nM | 0.00013 s⁻¹ | 2e+06 M⁻¹ s⁻¹ | 0.096 nM | 0.00018 s⁻¹ | 1.9e+06 M⁻¹ s⁻¹ |
| lipocalin mutein of SEQ ID NO: 14 (designed binder, hNGAL (Lcn2) mutein; also called optimized GPC3 specific lipocalin mutein) QDSTSDLIPAPPLSKVPLQQNFQDNQFQGKWYVVGRAGNVGLREDKDPPKMWATIYELKEDKSYDVTNVRFAGKKVKYTIGTFVPGSQPGEFTLGQIKSEPGNTATLVRVVSTNYNQHAMVFFKEVYQNREIFFITLYGRTKELTSELKENFIRFSKSLGLPENHIVFPVPIDQAIDGSAWSHPQFEK | 6.7 nM | 9.5 nM | 15.4 nM | 0.819 nM | 0.002 s⁻¹ | 2.4e+06 M⁻¹ s⁻¹ | 1.59 nM | 0.0031 s⁻¹ | 2e+06 M⁻¹ s⁻¹ |
| lipocalin mutein of SEQ ID NO: 12 (designed binder, hNGAL (Lcn2) mutein; also called optimized GPC3 specific lipocalin mutein) QDSTSDLIPAPPLSKVPLQQNFQDNQFQGKWYVVGRAGNVALREDKDPPKMRATIYELKEDKSYDVTNVVFAGKKCKYSIGTFVPGSQPGEFTLGRIKSPPGNTANLVRVVSTNYNQHAMVFFKEVYQNREIFFIILYGRTKELTSELKENFIRFSKSLGLPENHIVFPVPIDQCIDGSAWSHPQFEK | 5.3 nM | 2 nM | 1.7 nM | 0.037 nM | 0.00024 s⁻¹ | 6.5e+06 M⁻¹ s⁻¹ | 0.058 nM | 0.0003 s⁻¹ | 5.1e+06 M⁻¹ s⁻¹ |
| lipocalin mutein of SEQ ID NO: 9 (designed binder, hNGAL (Lcn2) mutein; also called optimized GPC3 specific lipocalin mutein) QDSTSDLIPAPPLSKVPLQQNFQDNQFQGKWYVVGRAGNVGLREDKDPPKMWATIYELKEDKSYDVTNVRFARKKCTYSIGTFVPGSQPGEFTLGQIKSEPGGTANLVRVVSTNYNQHAMVFFKEVYQNREIFFIILYGRTKELTSELKENFIRFSKSLGLPENHIVFPVPIDQCIDGSAWSHPQFEK | 4.1 nM | 1.1 nM | 1.9 nM | 0.054 nM | 9.8e-05 s⁻¹ | 1.8e+06 M⁻¹ s⁻¹ | 0.075 nM | 0.00015 s⁻¹ | 2e+06 M⁻¹ s⁻¹ |
| lipocalin mutein of SEQ ID NO: 11 (designed binder, hNGAL (Lcn2) mutein; also called optimized GPC3 specific lipocalin mutein) QDSTSDLIPAPPLSKVPLQQNFQDNQFQGKWYVVGRAGNVALREDKDPPKMRATIYELKEDKSYDVTAVRFARKKCLYSIGTFVPGSQPGEFTLGRIKSEPGYTANLVRVVSTNYNQHAMVFFKEVYQNREIFFIILYGRTKELTSELKENFIRFSKSLGLPENHIVFPVPIDQCIDGSAWSHPQFEK |  |  |  | 0.027 nM | 4.6e-05 s⁻¹ | 1.7e+06 M⁻¹ s⁻¹ | 0.011 nM | 3.2e-05 s⁻¹ | 2.9e+06 M⁻¹ s⁻¹ |
| lipocalin mutein of SEQ ID NO: 13 (designed binder, hNGAL (Lcn2) mutein; also called optimized GPC3 specific lipocalin mutein) QDSTSDLIPAPPLSKVPLQQNFQDNQFQGKWYVVGRAGNLGLREDKDPPKMWATIYELKEDKSYDVTNVRFARKKCMYSIGTFVPGSQPGEFTLGQIKSEPGSTANLVRVVSTNYNQHAMVFFKEVYQNREIFFITLYGRTKELTSELKENFIRFSKSLGLPENHIVFPVPIDQCIDGSAWSHPQFEK | 2.9 nM | 0.9 nM | 0.6 nM | 0.07 nM | 0.00018 s⁻¹ | 2.6e+06 M⁻¹ s⁻¹ | 0.09 nM | 0.00024 s⁻¹ | 2.7e+06 M⁻¹ s⁻¹ |
| lipocalin mutein of SEQ ID NO: 10 (designed binder, hNGAL (Lcn2) mutein; also called optimized GPC3 specific lipocalin mutein) QDSTSDLIPAPPLSKVPLQQNFQDNQFQGKWYVVGRAGNGALREDKDPPKMWATIYELKEDKSYDVTNVRFARKKCVYSIGTFVPGSQPGEFTLGPIKSEPGNTASLVRVVSTNYNQHAMVFFKEVYQNREIFFIILYGRTKELTSELKENFIRFSKSLGLPENHIVFPVPIDQCIDGSAWSHPQFEK | 3.8 nM | 0.8 nM | 0.8 nM | 0.063 nM | 0.00012 s⁻¹ | 1.8e+06 M⁻¹ s⁻¹ | 0.093 nM | 0.00017 s⁻¹ | 1.8e+06 M⁻¹ s⁻¹ |
| lipocalin mutein of SEQ ID NO: 4 (designed binder, hNGAL (Lcn2) mutein; also called non-optimized GPC3-specific Lcn2 mutein; mother clone) QDSTSDLIPAPPLSKVPLQQNFQDNQFHGKWYVVGRAGNVALREDKDPPKMRATIYELKEDKSYNVTNVRFAMKKCMYSIGTFVPGSQPGEFTLGQIKSEPGNTSNLVRVVSTNYNQHAMVFFKEVYQNREIFFITLYGRTKELTSELKENFIRFSKSLGLPENHIVFPVPIDQCIDGSAWSHPQFEK | 7.1 nM | 10.2 nM | 5.7 nM | 0.877 nM | 0.0022 s⁻¹ | 2.5e+06 M⁻¹ s⁻¹ | 1.09 nM | 0.0028 s⁻¹ | 2.6e+06 M⁻¹ s⁻¹ |

Reference: patent US20180141988A1 (Pieris, published 2018)
